From PMC8464079

How the values were obtained:
Assay in all cases: fluorescence polarization
MUT-#12 (K513E) = target: T1, MUT-#12 (K513E) (Caenorhabditis elegans, UniProt Q09487 172-535, K513E)
T1 sequence: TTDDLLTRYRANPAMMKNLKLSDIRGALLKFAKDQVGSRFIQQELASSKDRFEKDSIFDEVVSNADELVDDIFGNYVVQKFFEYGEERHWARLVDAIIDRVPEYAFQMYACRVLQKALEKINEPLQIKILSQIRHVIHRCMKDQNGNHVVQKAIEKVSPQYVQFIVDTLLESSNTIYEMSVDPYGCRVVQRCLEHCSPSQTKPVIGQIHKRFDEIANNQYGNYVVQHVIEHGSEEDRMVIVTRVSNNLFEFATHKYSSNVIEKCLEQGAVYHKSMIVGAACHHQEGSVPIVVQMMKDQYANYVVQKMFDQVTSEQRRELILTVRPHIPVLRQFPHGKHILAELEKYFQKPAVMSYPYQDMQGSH

MUT-4C = target: T2, MUT-4C (Caenorhabditis elegans, UniProt Q09487 172-535, N318C;H319Y;Q322R)
T2 sequence: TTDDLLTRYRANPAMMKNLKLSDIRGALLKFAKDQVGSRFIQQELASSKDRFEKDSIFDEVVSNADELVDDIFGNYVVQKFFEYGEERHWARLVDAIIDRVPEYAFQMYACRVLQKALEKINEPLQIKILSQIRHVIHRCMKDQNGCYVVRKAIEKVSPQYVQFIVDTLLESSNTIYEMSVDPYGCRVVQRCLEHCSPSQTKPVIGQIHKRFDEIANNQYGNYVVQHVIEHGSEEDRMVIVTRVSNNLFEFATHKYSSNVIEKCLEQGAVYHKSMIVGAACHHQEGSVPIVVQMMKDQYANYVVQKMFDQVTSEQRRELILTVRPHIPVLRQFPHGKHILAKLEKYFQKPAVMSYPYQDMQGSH

MUT-#11 (K513A) = target: T3, MUT-#11 (K513A) (Caenorhabditis elegans, UniProt Q09487 172-535, K513A)
T3 sequence: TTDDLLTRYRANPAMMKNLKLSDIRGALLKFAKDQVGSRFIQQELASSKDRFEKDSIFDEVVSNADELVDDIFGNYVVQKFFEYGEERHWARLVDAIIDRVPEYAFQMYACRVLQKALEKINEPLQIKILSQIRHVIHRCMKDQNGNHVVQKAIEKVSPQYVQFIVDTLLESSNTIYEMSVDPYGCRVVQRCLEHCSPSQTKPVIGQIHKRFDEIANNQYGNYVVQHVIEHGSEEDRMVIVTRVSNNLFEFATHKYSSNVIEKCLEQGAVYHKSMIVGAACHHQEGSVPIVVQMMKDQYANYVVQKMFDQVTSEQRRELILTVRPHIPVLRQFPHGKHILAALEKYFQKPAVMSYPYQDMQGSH

MUT-#14 (Q476A/K513A) = target: T4, MUT-#14 (Q476A/K513A) (Caenorhabditis elegans, UniProt Q09487 172-535, Q476A;K513A)
T4 sequence: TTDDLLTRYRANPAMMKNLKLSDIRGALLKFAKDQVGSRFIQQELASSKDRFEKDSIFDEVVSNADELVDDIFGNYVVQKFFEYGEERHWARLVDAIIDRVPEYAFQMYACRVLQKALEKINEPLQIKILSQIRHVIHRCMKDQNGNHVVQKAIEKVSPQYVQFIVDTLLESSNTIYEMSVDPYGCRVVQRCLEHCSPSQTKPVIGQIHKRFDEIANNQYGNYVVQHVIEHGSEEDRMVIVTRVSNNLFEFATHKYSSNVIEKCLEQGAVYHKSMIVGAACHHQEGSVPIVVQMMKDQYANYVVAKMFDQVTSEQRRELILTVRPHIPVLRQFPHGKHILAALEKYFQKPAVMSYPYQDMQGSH

PUF-8 WT (FP) = target: T5, PUF-8 WT (FP) (Caenorhabditis elegans, UniProt Q09487 172-535)
T5 sequence: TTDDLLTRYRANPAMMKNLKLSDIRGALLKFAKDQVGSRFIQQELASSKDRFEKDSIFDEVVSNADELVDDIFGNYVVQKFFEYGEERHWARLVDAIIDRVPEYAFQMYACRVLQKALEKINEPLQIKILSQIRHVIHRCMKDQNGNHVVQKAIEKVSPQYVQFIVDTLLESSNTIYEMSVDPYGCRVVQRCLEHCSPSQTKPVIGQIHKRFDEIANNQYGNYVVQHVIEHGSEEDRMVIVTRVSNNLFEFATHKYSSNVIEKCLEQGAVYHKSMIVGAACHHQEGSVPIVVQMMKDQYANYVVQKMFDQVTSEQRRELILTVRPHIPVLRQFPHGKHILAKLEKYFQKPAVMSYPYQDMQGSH

MUT-4G = target: T6, MUT-4G (Caenorhabditis elegans, UniProt Q09487 172-535, N318S;H319N;Q322E)
T6 sequence: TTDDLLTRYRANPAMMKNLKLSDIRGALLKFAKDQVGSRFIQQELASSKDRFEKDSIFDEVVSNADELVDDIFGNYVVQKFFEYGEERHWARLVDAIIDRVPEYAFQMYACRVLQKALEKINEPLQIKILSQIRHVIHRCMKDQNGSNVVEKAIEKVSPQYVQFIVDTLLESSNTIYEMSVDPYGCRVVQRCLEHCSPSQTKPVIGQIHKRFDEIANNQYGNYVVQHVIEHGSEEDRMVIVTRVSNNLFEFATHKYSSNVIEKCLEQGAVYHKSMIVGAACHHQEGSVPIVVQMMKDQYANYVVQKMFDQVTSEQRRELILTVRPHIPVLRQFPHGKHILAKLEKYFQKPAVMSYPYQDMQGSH

Binder: UGUAAAUA (ssRNA) [PBE-5A FAM]
- Kd (MUT-#12 (K513E)): 209 ± 29.1 nM
- Kd (MUT-4C): 16.3 ± 4.64 nM
- Kd (MUT-#11 (K513A)): 133 ± 29.8 nM
- Kd (MUT-#14 (Q476A/K513A)): 210 ± 27.4 nM
- Kd (PUF-8 WT (FP)): 2.49 ± 1.5 nM
- Kd (MUT-4G): 239 ± 48 nM
